± gives the uncertainty stated by the source.

This series in a line: self-splicing fitness, log relative to wild type (ln ratio); higher = more splicing; Tetrahymena group I intron in knt gene, E. coli kanamycin selection, DiMSum; sequences stand for … in CUCUCU…GGAGGGAAAAGUUAUCAGGCAUGCACCUGGUAGCUAGUCUUUAAACCAAUAGAUUGCAUCGGUUUAAAAGGCAAGACCGUCAAAUUGCGGGAAAGGGGUCAACAGCCGUUCAGUACCAAGUCUCAGGGGAAACUUUGAGAUGGCCUUGCAAAGGGUAUGGUAAUAAGCUGACGGACAUGGUCCUAACCACGCAGCCAAGUCCUAAGUCAACAGAUCUUCUGUUGAUAUGGAUGCAGUUCACAGACUAAAUGUCGGUCGGGGAAGAUGUAUUCUUCUCAUAAGAUAUAGUCGGACCUCUCCUUAAUGGGAGCUAGCGGAUGAAGUGAUGCAACACUGGAGCCGCUGGGAACUAAUUUGUAUGCGAAAGUAUAUUGAUUAGUUUUGGAGUACUCGUGGUCG
Summed up: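 Fitness was computed with DiMSum as the error-weighted combination of replicate fold changes, kanamycin versus none, each normalised to wild type. The library randomised all eight intron nucleotides of the P1ex region, with the intron placed in the knt kanamycin-resistance gene on pET-22b(+) in E. coli BL21(DE3). Six replicate transformations were grown overnight at 37°C or 30°C on LB agar with or without 25 μg/mL kanamycin, plus 100 μg/mL carbenicillin, 50 μM IPTG and 0.2% rhamnose. Pooled colonies were amplicon-sequenced on an Illumina HiSeq 2500.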

With UGCAAGCAAUAUUACGAGCG, the “self-splicing fitness (ln)” value reads like this: (30 °C) -2.37 ± 0.092; (37 °C) -0.896 ± 0.1. Taken in the same sequence, the figures for AAUCAGCAAUAUUACGCAGC were -1.36 ± 0.15 and -0.207 ± 0.14. Consider CCCUAGCAAUAUUACGUUGU, for which the “self-splicing fitness (ln)” value runs as follows: (30 °C) -3.84 ± 0.16; (37 °C) -3.27 ± 0.16. As to UACGAGCAAUAUUACGUGAC, the “self-splicing fitness (ln)” value is -4.06 ± 0.33 (30 °C) and -1.76 ± 0.27 (37 °C).

Turning to GGCGAGCAAUAUUACGGUCC, under “37 °C”, the “self-splicing fitness (ln)” value is -2.99 ± 0.43. GAGAAGCAAUAUUACGUGGG: the “self-splicing fitness (ln)” value (30 °C) was -2.74 ± 0.14 and the “self-splicing fitness (ln)” value (37 °C) is -2.29 ± 0.19.

On to GACGAGCAAUAUUACGGUGA, for which the “self-splicing fitness (ln)” value is, setting by setting: (30 °C) -3.52 ± 0.23; (37 °C) -2.05 ± 0.26. Taken in the same sequence, the figures for GUCCAGCAAUAUUACGAGAG were -1.15 ± 0.078 and 0.117 ± 0.077.

With CUGCAGCAAUAUUACGUUAG, the “self-splicing fitness (ln)” value is, setting by setting: (30 °C) -2.97 ± 0.1; (37 °C) -1.19 ± 0.1. As to CAAAAGCAAUAUUACGGAAG, the “self-splicing fitness (ln)” value was -1.23 ± 0.049 (30 °C) and -0.438 ± 0.071 (37 °C). CGCGAGCAAUAUUACGGCAA: the “self-splicing fitness (ln)” value by setting is: (30 °C) -4.21 ± 0.46; (37 °C) -1.97 ± 0.28. Taken in the same sequence, the figures for UGUAAGCAAUAUUACGACAU were -1.44 ± 0.015 and -0.831 ± 0.034.

CUAAAGCAAUAUUACGGCAU: the “self-splicing fitness (ln)” value is -3.69 ± 0.27 (30 °C) and -3.09 ± 0.4 (37 °C). Taken in the same sequence, the figures for AUUCAGCAAUAUUACGGAUC were -3.24 ± 0.11 and -2.53 ± 0.18. Regarding GGUCAGCAAUAUUACGCUUC, the “self-splicing fitness (ln)” value is -1.12 ± 0.14 (30 °C) and -0.693 ± 0.24 (37 °C).

On to AAUCAGCAAUAUUACGAGGA, for which the “self-splicing fitness (ln)” value (30 °C) was -2.13 ± 0.12 and the “self-splicing fitness (ln)” value (37 °C) was -1.23 ± 0.11.

Turning to UCGAAGCAAUAUUACGUGAG, the “self-splicing fitness (ln)” value (30 °C) was -0.469 ± 0.053 and the “self-splicing fitness (ln)” value (37 °C) is -0.72 ± 0.088. In the case of AGUGAGCAAUAUUACGAACU, the “self-splicing fitness (ln)” value reads like this: (30 °C) -2.3 ± 0.18; (37 °C) -2.58 ± 0.33. Taken in the same sequence, the figures for ACCGAGCAAUAUUACGGGAG were -3.54 ± 0.2 and -2.69 ± 0.3.

In the case of CCGGAGCAAUAUUACGAAAA, under “37 °C”, the “self-splicing fitness (ln)” value was -2.99 ± 0.48.

On to AGGUAGCAAUAUUACGAAAG, for which the “self-splicing fitness (ln)” value (30 °C) is -3.732 ± 0.036 and the “self-splicing fitness (ln)” value (37 °C) is -2.49 ± 0.045. Taken in the same sequence, the figures for GUCCAGCAAUAUUACGGCAU were -0.147 ± 0.085 and -0.171 ± 0.093. With UGUUAGCAAUAUUACGAAAA, the “self-splicing fitness (ln)” value runs as follows: (30 °C) -2.39 ± 0.46; (37 °C) -1.28 ± 0.22. UAGCAGCAAUAUUACGCAAG: the “self-splicing fitness (ln)” value was -3.04 ± 0.23 (30 °C) and -1.76 ± 0.21 (37 °C). Taken in the same sequence, the figures for UUGGAGCAAUAUUACGACCA were -3.12 ± 0.48 and -1.34 ± 0.35. Taken in the same sequence, the figures for GGACAGCAAUAUUACGGGGG were -2.84 ± 0.13 and -3.18 ± 0.22. With AUGAAGCAAUAUUACGGAUG, the “self-splicing fitness (ln)” value reads like this: (30 °C) -0.705 ± 0.063; (37 °C) 0.152 ± 0.076.

Take UACUAGCAAUAUUACGUGCU: the “self-splicing fitness (ln)” value runs as follows: (30 °C) -3.85 ± 0.32; (37 °C) -3.06 ± 0.27. For GGUAAGCAAUAUUACGUAGA the same measures were -1.56 ± 0.13 and -1.54 ± 0.21.

With GGGCAGCAAUAUUACGACGG, the “self-splicing fitness (ln)” value was -3.78 ± 0.35 (30 °C) and -1.4 ± 0.27 (37 °C). For UAUCAGCAAUAUUACGGGAG the same measures were -1.83 ± 0.087 and -1.17 ± 0.098.

On to GGUCAGCAAUAUUACGGCUC, for which the “self-splicing fitness (ln)” value by setting is: (30 °C) -2.39 ± 0.21; (37 °C) -1.68 ± 0.3. Taken in the same sequence, the figures for AACUAGCAAUAUUACGAUGU were -0.797 ± 0.082 and -0.157 ± 0.12. Regarding UGGCAGCAAUAUUACGAUAG, the “self-splicing fitness (ln)” value reads like this: (30 °C) -2.32 ± 0.098; (37 °C) -0.473 ± 0.094.

AGUGAGCAAUAUUACGACCA: the “self-splicing fitness (ln)” value reads like this: (30 °C) -1.79 ± 0.26; (37 °C) -1.52 ± 0.48.

GUUAAGCAAUAUUACGUACU: the “self-splicing fitness (ln)” value reads like this: (30 °C) -0.559 ± 0.15; (37 °C) -0.935 ± 0.14. For UCUUAGCAAUAUUACGACCA, the “self-splicing fitness (ln)” value (30 °C) was -1.32 ± 0.48.

Turning to AUGUAGCAAUAUUACGUACG, the “self-splicing fitness (ln)” value reads like this: (30 °C) -1.41 ± 0.1; (37 °C) -0.212 ± 0.13.

Source of the values: the supplement of paper PMC7877785.
